Assay results reported in the Human Domainome abundance scans (Beltran et al. 2025).
± gives the uncertainty stated by the source.

B1: Mineralocorticoid receptor, residues 600 to 675; numbered along this chain, P08235 (parent)
chain: SKICLVCGDEASGCHYGVVTCGSCKVFFKRAVEGQHNYLCAGRNDCIIDKIRRKNCPACRLQKCLQAGMNLGARKS

Variants of: B1
Assay: abundance fitness (aPCA) (normalised: wild type 0, dead -1); higher = more abundant; growth selection in yeast, the domain comes from the species named
Conditions: Homo sapiens

Question: For SKICLVCGDEASGCHYGVVTCGSCKVFFKRAVEGQHNYLCAGRNDCIIDKIRRKNCPACRLNKCLQAGMNLGARKS [Q62N], which abundance fitness is on record?
Answer: 0.033 ± 0.064

Question: For SKICLVCGDEASGCHYGVVTCGSCKVFFKRAVEGQHNYLCAGRNDCIIDKIRRKNCPACRLKKCLQAGMNLGARKS [Q62K], which abundance fitness is on record?
Answer: 0.046 ± 0.1

Question: With SKICLVCGDEASGCHYGVVTCGSCKVFFKRAVEGQHNYLCAGRNDCIIDKIRRKNCPACRLPKCLQAGMNLGARKS [Q62P] as the variant, how does the abundance fitness read?
Answer: -0.887 ± 0.13

Question: Which abundance fitness does the source give for SKICLVCGDEASGCHYGVVTCGSCKVFFKRAVEGQHNYLCAGRNDCIIDKIRRKNCPACRLWKCLQAGMNLGARKS [Q62W] here?
Answer: -0.059 ± 0.081

Question: With SKICLVCGDEASGCHYGVVTCGSCKVFFKRAVEGQHNYLCAGRNDCIIDKIRRKNCPACRLMKCLQAGMNLGARKS [Q62M] as the variant, how does the abundance fitness read?
Answer: 0.026 ± 0.082

Question: With SKICLVCGDEASGCHYGVVTCGSCKVFFKRAVEGQHNYLCAGRNDCIIDKIRRKNCPACRLLKCLQAGMNLGARKS [Q62L] as the variant, how does the abundance fitness read?
Answer: 0.012 ± 0.042

Question: For SKICLVCGDEASGCHYGVVTCGSCKVFFKRAVEGQHNYLCAGRNDCIIDKIRRKNCPACRLRKCLQAGMNLGARKS [Q62R], which abundance fitness is on record?
Answer: -0.045 ± 0.044

Question: For SKICLVCGDEASGCHYGVVTCGSCKVFFKRAVEGQHNYLCAGRNDCIIDKIRRKNCPACRLSKCLQAGMNLGARKS [Q62S], which abundance fitness is on record?
Answer: -0.049 ± 0.045

Question: Which abundance fitness does the source give for SKICLVCGDEASGCHYGVVTCGSCKVFFKRAVEGQHNYLCAGRNDCIIDKIRRKNCPACRLTKCLQAGMNLGARKS [Q62T] here?
Answer: -0.052 ± 0.055

Question: For SKICLVCGDEASGCHYGVVTCGSCKVFFKRAVEGQHNYLCAGRNDCIIDKIRRKNCPACRLYKCLQAGMNLGARKS [Q62Y], which abundance fitness is on record?
Answer: -0.121 ± 0.053

Question: With SKICLVCGDEASGCHYGVVTCGSCKVFFKRAVEGQHNYLCAGRNDCIIDKIRRKNCPACRLVKCLQAGMNLGARKS [Q62V] as the variant, how does the abundance fitness read?
Answer: -0.022 ± 0.056

Question: Which abundance fitness does the source give for SKICLVCGDEASGCHYGVVTCGSCKVFFKRAVEGQHNYLCAGRNDCIIDKIRRKNCPACRLQKCLCAGMNLGARKS [Q66C] here?
Answer: -0.023 ± 0.071

Question: For SKICLVCGDEASGCHYGVVTCGSCKVFFKRAVEGQHNYLCAGRNDCIIDKIRRKNCPACRLQKCLGAGMNLGARKS [Q66G], which abundance fitness is on record?
Answer: -0.044 ± 0.049

Question: With SKICLVCGDEASGCHYGVVTCGSCKVFFKRAVEGQHNYLCAGRNDCIIDKIRRKNCPACRLQKCLHAGMNLGARKS [Q66H] as the variant, how does the abundance fitness read?
Answer: -0.045 ± 0.11

Question: For SKICLVCGDEASGCHYGVVTCGSCKVFFKRAVEGQHNYLCAGRNDCIIDKIRRKNCPACRLQKCLPAGMNLGARKS [Q66P], which abundance fitness is on record?
Answer: -0.697 ± 0.18

Question: Which abundance fitness does the source give for SKICLVCGDEASGCHYGVVTCGSCKVFFKRAVEGQHNYLCAGRNDCIIDKIRRKNCPACRLQKCLEAGMNLGARKS [Q66E] here?
Answer: 0.081 ± 0.084

Question: With SKICLVCGDEASGCHYGVVTCGSCKVFFKRAVEGQHNYLCAGRNDCIIDKIRRKNCPACRLQKCLFAGMNLGARKS [Q66F] as the variant, how does the abundance fitness read?
Answer: -0.019 ± 0.067

Question: Which abundance fitness does the source give for SKICLVCGDEASGCHYGVVTCGSCKVFFKRAVEGQHNYLCAGRNDCIIDKIRRKNCPACRLQKCLMAGMNLGARKS [Q66M] here?
Answer: -0.065 ± 0.05

Question: With SKICLVCGDEASGCHYGVVTCGSCKVFFKRAVEGQHNYLCAGRNDCIIDKIRRKNCPACRLQKCLIAGMNLGARKS [Q66I] as the variant, how does the abundance fitness read?
Answer: -0.029 ± 0.1

Question: With SKICLVCGDEASGCHYGVVTCGSCKVFFKRAVEGQHNYLCAGRNDCIIDKIRRKNCPACRLQKCLDAGMNLGARKS [Q66D] as the variant, how does the abundance fitness read?
Answer: 0.018 ± 0.088

Question: For SKICLVCGDEASGCHYGVVTCGSCKVFFKRAVEGQHNYLCAGRNDCIIDKIRRKNCPACRLQKCLAAGMNLGARKS [Q66A], which abundance fitness is on record?
Answer: 0.011 ± 0.054

Question: Which abundance fitness does the source give for SKICLVCGDEASGCHYGVVTCGSCKVFFKRAVEGQHNYLCAGRNDCIIDKIRRKNCPACRLQKCLLAGMNLGARKS [Q66L] here?
Answer: -0.112 ± 0.044

Question: For SKICLVCGDEASGCHYGVVTCGSCKVFFKRAVEGQHNYLCAGRNDCIIDKIRRKNCPACRLQSCLQAGMNLGARKS [K63S], which abundance fitness is on record?
Answer: -0.104 ± 0.037

Question: With SKICLVCGDEASGCHYGVVTCGSCKVFFKRAVEGQHNYLCAGRNDCIIDKIRRKNCPACRLQYCLQAGMNLGARKS [K63Y] as the variant, how does the abundance fitness read?
Answer: -0.137 ± 0.049

Question: For SKICLVCGDEASGCHYGVVTCGSCKVFFKRAVEGQHNYLCAGRNDCIIDKIRRKNCPACRLQMCLQAGMNLGARKS [K63M], which abundance fitness is on record?
Answer: -0.074 ± 0.065

Question: Which abundance fitness does the source give for SKICLVCGDEASGCHYGVVTCGSCKVFFKRAVEGQHNYLCAGRNDCIIDKIRRKNCPACRLQRCLQAGMNLGARKS [K63R] here?
Answer: -0.082 ± 0.045

Question: For SKICLVCGDEASGCHYGVVTCGSCKVFFKRAVEGQHNYLCAGRNDCIIDKIRRKNCPACRLQQCLQAGMNLGARKS [K63Q], which abundance fitness is on record?
Answer: -0.134 ± 0.081

Question: Which abundance fitness does the source give for SKICLVCGDEASGCHYGVVTCGSCKVFFKRAVEGQHNYLCAGRNDCIIDKIRRKNCPACRLQWCLQAGMNLGARKS [K63W] here?
Answer: -0.204 ± 0.083

Question: With SKICLVCGDEASGCHYGVVTCGSCKVFFKRAVEGQHNYLCAGRNDCIIDKIRRKNCPACRLQTCLQAGMNLGARKS [K63T] as the variant, how does the abundance fitness read?
Answer: -0.024 ± 0.045

Question: For SKICLVCGDEASGCHYGVVTCGSCKVFFKRAVEGQHNYLCAGRNDCIIDKIRRKNCPACRLQACLQAGMNLGARKS [K63A], which abundance fitness is on record?
Answer: -0.075 ± 0.045

Question: For SKICLVCGDEASGCHYGVVTCGSCKVFFKRAVEGQHNYLCAGRNDCIIDKIRRKNCPACRLQPCLQAGMNLGARKS [K63P], which abundance fitness is on record?
Answer: -0.754 ± 0.099

Question: With SKICLVCGDEASGCHYGVVTCGSCKVFFKRAVEGQHNYLCAGRNDCIIDKIRRKNCPACRLQICLQAGMNLGARKS [K63I] as the variant, how does the abundance fitness read?
Answer: -0.101 ± 0.047

Question: With SKICLVCGDEASGCHYGVVTCGSCKVFFKRAVEGQHNYLCAGRNDCIIDKIRRKNCPACRLQHCLQAGMNLGARKS [K63H] as the variant, how does the abundance fitness read?
Answer: -0.099 ± 0.044

Question: For SKICLVCGDEASGCHYGVVTCGSCKVFFKRAVEGQHNYLCAGRNDCIIDKIRRKNCPACRLQGCLQAGMNLGARKS [K63G], which abundance fitness is on record?
Answer: -0.104 ± 0.042

Question: Which abundance fitness does the source give for SKICLVCGDEASGCHYGVVTCGSCKVFFKRAVEGQHNYLCAGRNDCIIDKIRRKNCPACRLQLCLQAGMNLGARKS [K63L] here?
Answer: -0.092 ± 0.04

Question: Which abundance fitness does the source give for SKICLVCGDEASGCHYGVVTCGSCKVFFKRAVEGQHNYLCAGRNDCIIDKIRRKNCPACRLQNCLQAGMNLGARKS [K63N] here?
Answer: -0.058 ± 0.046
